Assay results reported in publication PMC12212138.

How the values were obtained:
[1] = molecular target: T1, PARP4 BRCT-WGR-CAT WT (human) (UniProt Q9UKK3); test: EMSA; conditions: FP: 50 mM Tris pH 7.5, 50 mM NaCl, 1 mM MgCl2, 0.05% NP40, 2 mM DTT, 5% glycerol, 25 ug/ml BSA, room temp 30 min; EMSA: 50 mM Tris pH 7.5, 50 mM NaCl, 4% …
T1 sequence: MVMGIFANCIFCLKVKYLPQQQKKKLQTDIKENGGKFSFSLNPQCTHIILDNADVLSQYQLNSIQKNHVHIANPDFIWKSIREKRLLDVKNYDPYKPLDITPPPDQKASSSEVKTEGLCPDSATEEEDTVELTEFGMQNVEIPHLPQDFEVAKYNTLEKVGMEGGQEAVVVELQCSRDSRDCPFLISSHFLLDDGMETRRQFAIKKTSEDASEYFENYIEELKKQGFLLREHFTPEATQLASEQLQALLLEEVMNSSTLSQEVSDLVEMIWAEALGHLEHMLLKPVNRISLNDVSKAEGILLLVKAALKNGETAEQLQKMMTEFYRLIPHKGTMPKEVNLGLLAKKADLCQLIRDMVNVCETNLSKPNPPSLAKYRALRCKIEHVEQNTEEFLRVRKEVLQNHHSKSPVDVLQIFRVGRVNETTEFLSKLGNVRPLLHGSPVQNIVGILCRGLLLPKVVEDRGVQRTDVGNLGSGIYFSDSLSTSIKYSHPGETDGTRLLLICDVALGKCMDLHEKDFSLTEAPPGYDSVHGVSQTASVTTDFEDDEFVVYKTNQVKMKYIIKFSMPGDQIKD

PARP4 WGR-CAT (human) = molecular target: T2, PARP4 WGR-CAT (human) (UniProt Q9UKK3); test: FP; conditions: FP: 50 mM Tris pH 7.5, 50 mM NaCl, 1 mM MgCl2, 0.05% NP40, 2 mM DTT, 5% glycerol, 25 ug/ml BSA, room temp 30 min; EMSA: 50 mM Tris pH 7.5, 50 mM NaCl, 4% …
T2 sequence: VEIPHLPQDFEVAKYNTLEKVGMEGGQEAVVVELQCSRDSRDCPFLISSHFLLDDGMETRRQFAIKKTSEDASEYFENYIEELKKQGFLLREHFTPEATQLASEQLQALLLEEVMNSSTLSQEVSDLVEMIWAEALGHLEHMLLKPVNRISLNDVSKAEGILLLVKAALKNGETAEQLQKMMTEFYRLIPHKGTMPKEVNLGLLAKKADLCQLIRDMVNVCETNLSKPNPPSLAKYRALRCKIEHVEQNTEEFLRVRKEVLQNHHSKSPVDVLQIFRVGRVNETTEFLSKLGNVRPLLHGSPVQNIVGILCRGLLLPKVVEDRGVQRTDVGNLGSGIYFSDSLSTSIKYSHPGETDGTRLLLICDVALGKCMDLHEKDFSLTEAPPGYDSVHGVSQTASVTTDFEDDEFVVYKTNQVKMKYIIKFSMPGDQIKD

Sequence	Kd [1] [µM]	Kd (PARP4 WGR-CAT (human)) [µM]
CCGCGGGC / GCUCAGCGG [Probe 3]	11	
CCGCGGGC / GCUCGCGG [Probe 4]	7	
GGCUGGCUUUAGCUCAGCGGUUACUUCGCGUGUCAUCAAACCACCUCUCUGGGUUGUUCGAGACCCGCGGGCGCUCUCCAGCCCUCUU [vtRNA1-3]		93
